Data: patent publication US20220153832A1 (PIONYR IMMUNOTHERAPEUTICS, published 2022)

T1: N-terminal his-tagged mouse MARCO protein, recombinant (mouse, UniProt Q60754 150-518)
T1 construct: The entry holds the His tag, the CLD and the SRCR domain; also called mMARCO (RG3016); PI-RG-3016
T1 sequence: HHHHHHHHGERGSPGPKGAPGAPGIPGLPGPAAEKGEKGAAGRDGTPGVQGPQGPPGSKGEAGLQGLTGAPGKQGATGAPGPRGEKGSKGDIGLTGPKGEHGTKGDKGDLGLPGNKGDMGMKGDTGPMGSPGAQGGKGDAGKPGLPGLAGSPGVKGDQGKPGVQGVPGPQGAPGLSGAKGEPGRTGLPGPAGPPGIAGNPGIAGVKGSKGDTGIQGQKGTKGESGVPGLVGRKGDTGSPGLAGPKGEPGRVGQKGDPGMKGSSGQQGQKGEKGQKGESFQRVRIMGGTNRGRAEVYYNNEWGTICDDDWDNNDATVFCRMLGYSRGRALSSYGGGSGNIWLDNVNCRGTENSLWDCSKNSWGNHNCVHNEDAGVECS

T2: hMARCO(His-CLD-SRCR) (RG3033) (human, UniProt Q9UEW3 147-520)
T2 construct: also called wild type hMARCO
T2 sequence: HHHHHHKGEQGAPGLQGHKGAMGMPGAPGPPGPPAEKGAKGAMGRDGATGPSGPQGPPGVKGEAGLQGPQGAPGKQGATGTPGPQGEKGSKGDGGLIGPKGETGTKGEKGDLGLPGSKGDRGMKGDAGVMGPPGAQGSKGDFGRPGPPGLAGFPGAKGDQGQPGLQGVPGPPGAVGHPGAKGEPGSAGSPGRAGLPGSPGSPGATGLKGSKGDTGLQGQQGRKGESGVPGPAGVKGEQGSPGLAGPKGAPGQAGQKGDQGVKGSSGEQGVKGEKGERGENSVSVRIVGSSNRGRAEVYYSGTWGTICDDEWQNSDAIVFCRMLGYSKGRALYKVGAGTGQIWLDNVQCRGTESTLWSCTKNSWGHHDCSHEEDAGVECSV

T3: Mouse MARCO, full length, on cells (mouse, UniProt Q60754 1-518)
T3 construct: whole, on cells; the cell type is named under assay; also called muMARCO; MuMARCO
T3 sequence (looked up): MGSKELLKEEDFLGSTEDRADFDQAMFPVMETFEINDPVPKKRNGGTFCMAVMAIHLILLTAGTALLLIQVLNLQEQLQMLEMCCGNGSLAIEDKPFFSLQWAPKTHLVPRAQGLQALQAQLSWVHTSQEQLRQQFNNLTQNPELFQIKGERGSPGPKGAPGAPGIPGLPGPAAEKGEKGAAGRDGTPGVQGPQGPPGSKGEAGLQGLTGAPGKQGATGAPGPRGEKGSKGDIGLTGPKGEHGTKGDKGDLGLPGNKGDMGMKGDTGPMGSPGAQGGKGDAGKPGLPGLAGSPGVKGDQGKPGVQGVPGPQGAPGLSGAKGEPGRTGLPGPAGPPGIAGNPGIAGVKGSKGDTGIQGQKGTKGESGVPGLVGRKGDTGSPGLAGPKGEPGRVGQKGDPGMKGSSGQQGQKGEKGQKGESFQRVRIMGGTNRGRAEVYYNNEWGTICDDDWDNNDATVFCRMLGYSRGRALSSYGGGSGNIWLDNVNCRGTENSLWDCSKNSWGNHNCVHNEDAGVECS

B1: PI-3035-AB (antibody, mouse IgG2a, kappa, V domains shown)
VH: QVQLKESGPGLVQPSQTLSLTCTVSGFSLTSYTLSWVRQPPGKGLEWIGAIWGGDNTDYNSALKSRLSISRDTSKSQVLLKMNSLQTEDTAIYFCTRELGGSFDYWGQGVMVTVSS
VL: DIQMTQSPPVLSASVGDRVTLSCKTSQNINKKLDWYQQKHGEAPKLLIYYTNNLQTGIPSRFSGSGSGTDFTLTISTLQPEDVATYYCYQYDSGFTFGAGTKLELKR
notes: Mouse IgG2a chimera derived from PI-HX-3092; also called HX3092 (A mutation) - mIgG2a
B2: PI-3008-AB (antibody, mouse IgG2a, kappa, V domains shown)
VH: EVQLVESGGGLVKPGASLKLSCVASGFTFSDDWMNWVRQTPGKAMEWIGDIKYDGSYTNYVPSLKNRLTISRDNAKNTLYLQMTNVRSEDTATYYCTSGGVFDYWGQGVMVTVSS
VL: EIVLSQSPTTMAASPGEKVTITCRASSSVSYMHWFQQKSGTSPKPWIYDTSKLASGVPDRFSGSGSGTSYSLTISSMEAEDAATYYCLQRSGYPPTFGAGTKLEVKR
notes: Recombinant anti-mouse MARCO antibody with mouse IgG2a Fc, from PI-HX-3016

What was measured:
hVar3 (RG3036) = biological target: T4, hVar3 (RG3036) (human, UniProt Q9UEW3 147-520); test: ELISA on recombinant hVar3 protein, A450
T4 construct: Human MARCO His-CLD-SRCR with Q452D, Y472S and K473S (already in the entry); also called recombinant human SRCR MARCO hVar3 protein

[1] = biological target: T1, N-terminal his-tagged mouse MARCO …; test: ProbeLife Gator study, statement on the loaded antibodies
Method in brief: (§1)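 Antibody pairing on MARCO was assessed by biolayer interferometry on ProbeLife probes. In tandem format, 200 nM His-tagged MARCO was loaded on anti-His probes for 120 s, then a 60 s baseline, a first antibody at 200 nM, then a second antibody at 100-200 nM. In sandwich format, the first antibody (200 nM) was captured on anti-Fc probes for 120 s, followed by 200 nM MARCO and then the second antibody (200 nM), each for 120 s.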

[2] = biological target: T2, hMARCO(His-CLD-SRCR) (RG3033); test: as above
Method in brief: as §1

[3] = biological target: T3, Mouse MARCO, full length, on cells; test: competition with AF488 E. coli binding to muMARCO 293T cells, flow cytometry
[4] = biological target: T1, N-terminal his-tagged mouse MARCO …; test: Biacore
[5] = biological target: T3, Mouse MARCO, full length, on cells; test: flow cytometry, 293T (muMARCO)
[6] = biological target: T1, N-terminal his-tagged mouse MARCO …; test: ELISA on mMARCO ECD with 2 mM Ca2+, A450-A620

Binder | binding result (hVar3 (RG3036)) | binding result [1] | binding result [2] | EC50 [3] [nM] | Kd [4] [nM] | EC50 [5] [nM] | EC50 (read off the curve) [6] [nM]
B1 | binds | binds | binds | – | – | – | –
B2 | no binding (tested: 20 nM) | – | – | 1.81 | < 0.02 | 1.1 | ~0.07
